# From the Immune Epitope Database (IEDB)
# Columns and labels:
# Experiment in all cases: IEDB peptide-MHC binding, purified MHC/competitive/radioactivity; ≥ and ≤ were set here for values at or beyond the usual limits of such assays
# Details in all cases: source organism: Bordetella pertussis
# HLA-B*57:01 = target: HLA-B*57:01
# HLA-B*07:02 = target: HLA-B*07:02
# HLA-B*44:03 = target: HLA-B*44:03
# HLA-B*53:01 = target: HLA-B*53:01
# HLA-A*02:01 = target: HLA-A*02:01
# HLA-B*35:01 = target: HLA-B*35:01
sequence,measurement,setting,value
RARRALRQD,IC50,HLA-B*57:01,13.5 µM
RPSVNGGRI,IC50,HLA-B*07:02,0.348 µM
RETFCITTI,IC50,HLA-B*44:03,214 nM
HANHYGTRI,IC50,HLA-B*53:01,52.1 µM
EGGKLRGKD,IC50,HLA-A*02:01,≥ 78.1 µM
AARVAGDNY,IC50,HLA-B*57:01,32.3 µM
MPKAPELDL,IC50,HLA-B*07:02,21 µM
LAGSGLFRM,IC50,HLA-B*35:01,0.767 µM
TAPVTSPAW,IC50,HLA-B*53:01,4.36 µM
TLSSAHGNV,IC50,HLA-A*02:01,48.6 µM
VKLGGVYEA,IC50,HLA-A*02:01,9.59 µM
FPTRTTAPG,IC50,HLA-B*53:01,0.894 µM
AQVTVAGRY,IC50,HLA-B*44:03,3250 nM
TEAQGVQVR,IC50,HLA-B*44:03,19900 nM
SVKVAKKLF,IC50,HLA-B*57:01,≥ 70.4 µM
IIKDAPPGA,IC50,HLA-A*02:01,15.4 µM
IIQEFAADL,IC50,HLA-A*02:01,4.15 µM
RRFTHADGW,IC50,HLA-B*57:01,55.9 µM
RSGARATSL,IC50,HLA-B*57:01,21.9 µM
MAPVMGACM,IC50,HLA-B*35:01,5 µM
GEAMVLVYY,IC50,HLA-B*35:01,36.4 µM
ILAGALATY,IC50,HLA-B*35:01,4.29 µM
KATVTTVQV,IC50,HLA-B*57:01,35.2 µM
AEIAFYPKE,IC50,HLA-B*44:03,480 nM
